The record followed here is patent US20100081612A1 (GENERAL HOSPITAL, published 2010).

In assay [1] the target is T1, wild-type human PTHR (human, UniProt Q03431 27-593).
T1 construct: whole, on cells; also called PTHR-WT; intact PTHR
T1 sequence (looked up): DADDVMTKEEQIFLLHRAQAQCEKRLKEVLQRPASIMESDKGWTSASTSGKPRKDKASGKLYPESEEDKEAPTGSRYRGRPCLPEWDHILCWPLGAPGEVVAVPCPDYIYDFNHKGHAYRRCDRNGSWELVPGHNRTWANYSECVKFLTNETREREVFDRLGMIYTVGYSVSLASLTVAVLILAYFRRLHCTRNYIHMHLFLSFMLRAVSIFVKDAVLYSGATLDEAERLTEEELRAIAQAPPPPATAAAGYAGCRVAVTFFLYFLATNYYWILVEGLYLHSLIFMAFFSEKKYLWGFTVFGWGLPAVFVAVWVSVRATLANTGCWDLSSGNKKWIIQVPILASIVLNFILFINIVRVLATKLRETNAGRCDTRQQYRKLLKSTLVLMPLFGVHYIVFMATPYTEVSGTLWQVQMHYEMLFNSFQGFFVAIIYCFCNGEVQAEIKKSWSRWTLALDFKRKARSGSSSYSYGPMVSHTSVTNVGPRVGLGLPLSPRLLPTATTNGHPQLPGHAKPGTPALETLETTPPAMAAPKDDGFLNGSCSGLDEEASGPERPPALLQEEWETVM
Description: competition binding, HKRK-B7 cells, 125I-PTH(1-34) tracer. Here is the method:
Receptor binding—Binding to the wild-type human PTHR in intact HKRK-B7 cells and ROS 17/2.8 cells was assessed using ¹²⁵I-PTH(1-34) as a tracer radioligand, as described (Shimizu, M., (2001) Endocrinology 142:3068-3074). In brief, the cells in 24-well plates (about 500,000 cells per well) were incubated in binding buffer containing radioligand (about 100,000 cpm per well) with or without unlabeled peptide ligand (3×10⁻⁹ to 1×10⁻⁵ M) for four hours at 15° C. The binding mixture was then removed by aspiration, the cells were rinsed three times with binding buffer, lysed in 1 M NaOH, and the entire lysate was counted for gamma-irradiation in a gamma counter. Binding to PTHR-delNt in COS-7 cell membranes was assessed in 96-well, vacuum filtration plates (Multiscreen-Durapore HV, […], Millipore Corp., Millford, Mass.) using ¹²⁵I-[Aib^{1,3},M]PTH(1-15)NH₂ as a tracer radioligand, as described (Dean, T., (2006) Mol Endocrinol 20:931-942). In brief, cell membranes (20 μg/well) were incubated in membrane binding buffer containing radioligand (30,000 cpm/well) with or without unlabeled peptide ligand (3×10⁻⁹ to 1×10⁻⁵ M) for 90 minutes at 21° C. The plates were then subject to rapid vacuum filtration, the filters were washed once with buffer, detached from the plate and counted for gamma-irradiation in a gamma counter. Non-specific binding was defined as the binding observed in the presence of 1×10⁻⁶ M PTH(1-31)NH₂ for HKRK-B7 and ROS 17/2.8 cells, and 1×10⁻⁶ M [Aib^{1,3},M]PTH(1-15)NH₂ for PTHR-delNt. Specifically bound radioactivity was calculated as a percentage of the radioactivity specifically bound in the absence of competing ligand.
Alanine-Scan of the PTH(17-31) domain—Each residue in the (17-31) region of PTH(1-31)NH₂ was individually replaced with alanine and the effects of the substitutions on binding to the intact human PTHR stably expressed in HKRK-B7 cells was assessed. Competition binding studies were performed using whole cells and ¹²⁵I-PTH(1-34) (¹²⁵I-[Nle^{8,21},Tyr³⁴]ratPTH(1-34)NH₂) as a tracer radioligand.

Assay [2] addresses T1, wild-type human PTHR. The description is as above. This is another data set of the same source.
The target of a further assay is PTHR-delNt (human) (UniProt Q03431). Description: competition binding, COS-7 membranes, 125I-[Aib1,3,M]PTH(1-15) tracer.

Broadly, the IC50 is the concentration at which inhibition is half-maximal. The low end stands for inhibition by little substance, the high end for a need for much substance.

Where no end group is shown, it is not given here. [ ]: non-standard residue; d: D form. Nle = CCCC[C@H](N)C(=O)O Some results are limits rather than exact numbers.

B1: PTH(1-31)NH2 Arg^20→Nle (peptide)
peptide: SVSEIQLMHNLGKHLNSME[Nle]VEWLRKKLQDV-NH2
modifications: N-terminus assumed
SMILES: CCCC[C@H](NC(=O)[C@H](CCC(=O)O)NC(=O)[C@H](CCSC)NC(=O)[C@H](CO)NC(=O)[C@H](CC(N)=O)NC(=O)[C@H](CC(C)C)NC(=O)[C@H](Cc1c[nH]cn1)NC(=O)[C@H](CCCCN)NC(=O)CNC(=O)[C@H](CC(C)C)NC(=O)[C@H](CC(N)=O)NC(=O)[C@H](Cc1c[nH]cn1)NC(=O)[C@H](CCSC)NC(=O)[C@H](CC(C)C)NC(=O)[C@H](CCC(N)=O)NC(=O)[C@@H](NC(=O)[C@H](CCC(=O)O)NC(=O)[C@H](CO)NC(=O)[C@@H](NC(=O)[C@@H](N)CO)C(C)C)[C@@H](C)CC)C(=O)N[C@H](C(=O)N[C@@H](CCC(=O)O)C(=O)N[C@@H](Cc1c[nH]c2ccccc12)C(=O)N[C@@H](CC(C)C)C(=O)N[C@@H](CCCNC(=N)N)C(=O)N[C@@H](CCCCN)C(=O)N[C@@H](CCCCN)C(=O)N[C@@H](CC(C)C)C(=O)N[C@@H](CCC(N)=O)C(=O)N[C@@H](CC(=O)O)C(=O)N[C@H](C(N)=O)C(C)C)C(C)C
In the assay with wild-type human PTHR [1], B1 gave a half-maximal inhibitory concentration (IC50) of 15.4 µM. In addition, in the assay with wild-type human PTHR [2], the “fold reduction in binding affinity vs PTH(1-31)NH2” value is around 200 fold. For the same molecule, in the assay with PTHR-delNt (human), the IC50 turned out to be 10.7 µM and the fold difference of IC50 from PTH(1-31)NH2 is below 4 fold.

B2: PTH(1-31)NH2 Arg^20→Gln (peptide)
peptide: SVSEIQLMHNLGKHLNSMEQVEWLRKKLQDV-NH2
Take B2: the IC50 is above 10 µM with wild-type human PTHR [1] and 10.3 µM in the assay with PTHR-delNt (human). The same molecule showed a fold difference of IC50 from PTH(1-31)NH2 with PTHR-delNt (human) below 4 fold.

B3: PTH(1-31)NH2 Glu^19,22→Arg,Ala (peptide)
peptide: SVSEIQLMHNLGKHLNSMRRVAWLRKKLQDV-NH2
Turning to B3, the figures for the IC50 with wild-type human PTHR [1] and with PTHR-delNt (human) were 0.054 µM and 0.36 µM, respectively.

B4: PTH(1-31)NH2 Arg^20→Glu (peptide)
peptide: SVSEIQLMHNLGKHLNSMEEVEWLRKKLQDV-NH2
Turning to B4, the IC50 with wild-type human PTHR [1] is above 10 µM; with PTHR-delNt (human) it was 14.7 µM. In the assay with PTHR-delNt (human), this molecule gave a fold reduction in binding affinity vs PTH(1-31)NH2 of 4 fold.

B5: PTH(1-31)NH2 Arg^20→Lys (peptide)
peptide: SVSEIQLMHNLGKHLNSMEKVEWLRKKLQDV-NH2
Regarding B5, the IC50 was above 10 µM in the assay with wild-type human PTHR [1] and 7.11 µM with PTHR-delNt (human). The fold difference of IC50 from PTH(1-31)NH2 with PTHR-delNt (human) is below 4 fold.

B6: PTH(1-31)NH2 Glu^19→Arg (peptide)
peptide: SVSEIQLMHNLGKHLNSMRRVEWLRKKLQDV-NH2
As for B6, the half-inhibitory concentration (IC50) with wild-type human PTHR [1] is 0.042 µM; in the assay with PTHR-delNt (human) it was 1.23 µM. Moreover, in the assay with wild-type human PTHR [2], the “fold enhancement in binding affinity vs PTH(1-31)NH2” value was at most 2 fold.

B7: PTH(1-31)NH2 Glu^19,22→Ala,Ala (peptide)
peptide: SVSEIQLMHNLGKHLNSMARVAWLRKKLQDV-NH2
For the molecule B7, the figures for the IC50 with wild-type human PTHR [1] and with PTHR-delNt (human) were 0.049 µM and 0.619 µM, respectively.

B8: PTH(1-31)NH2 Arg^20→Cit (peptide)
peptide: SVSEIQLMHNLGKHLNSMEXVEWLRKKLQDV
modifications: citrulline (Cit) at 20; C-terminal amide
B8 displayed an IC50 with wild-type human PTHR [1] of 11.9 µM. Besides, the “fold reduction in binding affinity vs PTH(1-31)NH2” value with wild-type human PTHR [2] was around 200 fold. In the assay with PTHR-delNt (human), this molecule had an IC50 of 10.6 µM and a fold difference of IC50 from PTH(1-31)NH2 below 4 fold.
